The target in the assay is HA-tagged mutant (Leu15) AP2σ2 subunit (human) (human) (UniProt P53680). The experiment in a line: co-IP.

For the substance “AP2α subunit, endogenous in HEK293 cells (from UniProt O95782 1-977) (natural protein)”, the reduction of the subunit in the HA-AP2σ2 immunoprecipitate against WT cells is above 50%.

These data come from publication doi:10.1101/2020.08.10.244244.
